Results on 66 substances are retold here after patent publication US10745460B2, “Peptides and combination of peptides for use in immunotherapy against various tumors” (Immatics Biotechnologies GmbH, priority 2015, dated 2020).

The target of the assay is HLA-A*02:01 (Homo sapiens, UniProt P04439, D140Y/D185E/D98H/E176V/E277Q/G131W/G231S/I119V/I121R/I166T/I218V/L300P/L318F/N151K/N90K/P208A/P217A/Q86G/Q94H/R138H/R169H/T345S). The assay can be described thus: MHC binding assay: UV-ligand exchange with β2m ELISA (peptide exchange yield). To be noted: binding to HLA-A*02:01 evaluated by peptide exchange yield (UV-ligand exchange, β2m ELISA). From the text: Candidate peptides for T cell based therapies according to the present invention were further tested for their MHC binding capacity (affinity). The individual peptide-MHC complexes were produced by UV-ligand exchange, where a UV-sensitive peptide is cleaved upon UV-irradiation, and exchanged with the peptide of interest as analyzed. Only peptide candidates that can effectively bind and stabilize the peptide-receptive MHC molecules prevent dissociation of the MHC complexes. To determine the yield of the exchange reaction, an ELISA was performed based on the detection of the light chain (β2m) of stabilized MHC complexes. The assay was performed as generally described in Rodenko et al. (Rodenko et al., 2006).
96 well MAXISorp plates (NUNC) were coated over night with 2 ug/ml streptavidin in PBS at room temperature, washed 4× and blocked for 1 h at 37° C. in 2% BSA containing blocking buffer. Refolded HLA-A*02:01/MLA-001 monomers served as standards, covering the range of 15-500 ng/ml. Peptide-MHC monomers of the UV-exchange reaction were diluted 100 fold in blocking buffer. Samples were incubated for 1 h at 37° C., washed four times, incubated with 2 ug/ml HRP conjugated anti-β2m for 1 h at 37° C., washed again and detected with TMB solution that is stopped with […]. Absorption was measured at 450 nm. Candidate peptides that show a high exchange yield (preferably higher than 50%, most preferred higher than 75%) are generally preferred for a generation and production of antibodies or fragments thereof, and/or T cell receptors or fragments thereof, as they show sufficient avidity to the MHC molecules and prevent dissociation of the MHC complexes.
(An ELISA detects its analyte on a solid surface through an enzyme-linked reagent.)

Regarding “218 (SLTGANITV; listed as Homo sapiens) [compound 218]”, the Peptide exchange result is recorded as “+++ (≥50 = +++)”.

As to “182 (GLQDGFQITV; listed as Homo sapiens) [compound 182]”, the Peptide exchange result is recorded as “+++ (≥50 = +++)”.

Take “26 (VLDGKVAVV; listed as Homo sapiens) [compound 26]”: the Peptide exchange entry is listed as “+++ (≥50 = +++)”.

Regarding “13 (RLHDENILL; listed as Homo sapiens) [compound 13]”, the Peptide exchange result is “+++ (≥50 = +++)”.

Regarding “148 (YLILSSHQL; listed as Homo sapiens) [compound 148]”, the Peptide exchange result is listed as “+++ (≥50 = +++)”.

For “226 (SLAGNLQEL; listed as Homo sapiens) [compound 226]”, the Peptide exchange entry is given as “+++ (≥50 = +++)”.

Take “219 (GVVPTIQKV; listed as Homo sapiens) [compound 219]”: the Peptide exchange entry was “++ (≥20% = ++)”.

For the substance “270 (TLLTFFHEL; listed as Homo sapiens) [compound 270]”, the Peptide exchange result is listed as “+++ (≥50 = +++)”.

Turning to “125 (AALEVLAEV; listed as Homo sapiens) [compound 125]”, the Peptide exchange result is given as “+++ (≥50 = +++)”.

Consider “106 (VLLGSVVIFA; listed as Homo sapiens) [compound 106]”, for which the Peptide exchange result is on record as “++ (≥20% = ++)”.

As to “1 (KLQEKIQEL; listed as Homo sapiens) [compound 1]”, the Peptide exchange entry is “++++ (≥75% = ++++)”.

Regarding “79 (TVLEEIGNRV; listed as Homo sapiens) [compound 79]”, the Peptide exchange entry is recorded as “++ (≥20% = ++)”.

Regarding “234 (VLLNEILEQV; listed as Homo sapiens) [compound 234]”, the Peptide exchange entry is listed as “++++ (≥75% = ++++)”.

As to “4 (VLFGELPAL; listed as Homo sapiens) [compound 4]”, the Peptide exchange entry is “+++ (≥50 = +++)”.

With “228 (SLLELDGINLRL; listed as Homo sapiens) [compound 228]”, the Peptide exchange result was “+++ (≥50 = +++)”.

Turning to “93 (RLYGYFHDA; listed as Homo sapiens) [compound 93]”, the Peptide exchange entry is “++ (≥20% = ++)”.

“34 (TLNTLDINL; listed as Homo sapiens) [compound 34]”: the Peptide exchange entry was “+++ (≥50 = +++)”.

For the substance “181 (LLWAPTAQA; listed as Homo sapiens) [compound 181]”, the Peptide exchange entry is given as “+++ (≥50 = +++)”.

As for “176 (VQSGLRILL; listed as Homo sapiens) [compound 176]”, the Peptide exchange result is reported as “++ (≥20% = ++)”.

Regarding “158 (YLDPLWHQL; listed as Homo sapiens) [compound 158]”, the Peptide exchange entry was “+++ (≥50 = +++)”.

With “38 (VLQQESNFL; listed as Homo sapiens) [compound 38]”, the Peptide exchange entry was “++ (≥20% = ++)”.

As to “114 (LLFPSDVQTL; listed as Homo sapiens) [compound 114]”, the Peptide exchange entry is reported as “++ (≥20% = ++)”.

“62 (SLVENIHVL; listed as Homo sapiens) [compound 62]”: the Peptide exchange entry is “+++ (≥50 = +++)”.

On to “86 (SLFSNIESV; listed as Homo sapiens) [compound 86]”, for which the Peptide exchange entry was “+++ (≥50 = +++)”.

Consider “237 (ALLEQTGDMSL; listed as Homo sapiens) [compound 237]”, for which the Peptide exchange entry is on record as “+++ (≥50 = +++)”.

In the case of “19 (KVFELDLVTL; listed as Homo sapiens) [compound 19]”, the Peptide exchange entry is on record as “++ (≥20% = ++)”.

Turning to “109 (ILGSFELQL; listed as Homo sapiens) [compound 109]”, the Peptide exchange result is “+++ (≥50 = +++)”.

Take “119 (SLIEESEEL; listed as Homo sapiens) [compound 119]”: the Peptide exchange entry is listed as “++ (≥20% = ++)”.

With “258 (QLVQRVASV; listed as Homo sapiens) [compound 258]”, the Peptide exchange result is given as “++ (≥20% = ++)”.

For the substance “59 (ALADGIKSFLL; listed as Homo sapiens) [compound 59]”, the Peptide exchange result was “+++ (≥50 = +++)”.

For the substance “222 (LLTGVFAQL; listed as Homo sapiens) [compound 222]”, the Peptide exchange entry is on record as “++ (≥20% = ++)”.

For the substance “147 (GLLSALENV; listed as Homo sapiens) [compound 147]”, the Peptide exchange result is listed as “+++ (≥50 = +++)”.

Consider “133 (FLDGRPLTL; listed as Homo sapiens) [compound 133]”, for which the Peptide exchange result is “++ (≥20% = ++)”.

Turning to “146 (VVAAHLAGA; listed as Homo sapiens) [compound 146]”, the Peptide exchange entry was “++ (≥20% = ++)”.

For “180 (RLYEEEIRI; listed as Homo sapiens) [compound 180]”, the Peptide exchange result is “+++ (≥50 = +++)”.

“95 (KLIDEDEPLFL; listed as Homo sapiens) [compound 95]”: the Peptide exchange entry is listed as “+++ (≥50 = +++)”.

As to “162 (GLLGNLLTSL; listed as Homo sapiens) [compound 162]”, the Peptide exchange result is given as “+++ (≥50 = +++)”.

As for “211 (LLTTVLINA; listed as Homo sapiens) [compound 211]”, the Peptide exchange result is listed as “+++ (≥50 = +++)”.

With “272 (FVMEGEPPKL; listed as Homo sapiens) [compound 272]”, the Peptide exchange entry is “++ (≥20% = ++)”.

Consider “251 (LLWGNLPEI; listed as Homo sapiens) [compound 251]”, for which the Peptide exchange entry is reported as “+++ (≥50 = +++)”.

“238 (HLQEKLQSL; listed as Homo sapiens) [compound 238]”: the Peptide exchange result is “++ (≥20% = ++)”.

Take “283 (ALSELLQQV; listed as Homo sapiens) [compound 283]”: the Peptide exchange result is recorded as “+++ (≥50 = +++)”.

Regarding “256 (FLNDIFERI; listed as Homo sapiens) [compound 256]”, the Peptide exchange result is given as “+++ (≥50 = +++)”.

As for “239 (VIIKGLEEITV; listed as Homo sapiens) [compound 239]”, the Peptide exchange result is “+++ (≥50 = +++)”.

Consider “48 (KISDFGLATV; listed as Homo sapiens) [compound 48]”, for which the Peptide exchange result is reported as “+++ (≥50 = +++)”.

For the substance “81 (ILAEEPIYI; listed as Homo sapiens) [compound 81]”, the Peptide exchange entry was “++ (≥20% = ++)”.

Take “157 (ILQDGQFLV; listed as Homo sapiens) [compound 157]”: the Peptide exchange entry was “++ (≥20% = ++)”.

For “247 (NLLIDDKGTIKL; listed as Homo sapiens) [compound 247]”, the Peptide exchange result is on record as “++ (≥20% = ++)”.

“61 (ALYPKEITL; listed as Homo sapiens) [compound 61]”: the Peptide exchange entry was “+++ (≥50 = +++)”.

Regarding “76 (FTAEFLEKV; listed as Homo sapiens) [compound 76]”, the Peptide exchange entry is given as “+++ (≥50 = +++)”.

In the case of “82 (ILAEEPIYIRV; listed as Homo sapiens) [compound 82]”, the Peptide exchange entry is “+++ (≥50 = +++)”.

As to “250 (LMQDSRLYL; listed as Homo sapiens) [compound 250]”, the Peptide exchange result is recorded as “+++ (≥50 = +++)”.

Regarding “138 (GIINKLVTV; listed as Homo sapiens) [compound 138]”, the Peptide exchange result is listed as “++ (≥20% = ++)”.

As to “265 (FLLDKPQDLSI; listed as Homo sapiens) [compound 265]”, the Peptide exchange entry is given as “+++ (≥50 = +++)”.

Consider “12 (RLLDPKTIFL; listed as Homo sapiens) [compound 12]”, for which the Peptide exchange result is recorded as “+++ (≥50 = +++)”.

Turning to “246 (ALAGIVTNV; listed as Homo sapiens) [compound 246]”, the Peptide exchange entry is given as “+++ (≥50 = +++)”.

“24 (KVWSDVTPL; listed as Homo sapiens) [compound 24]”: the Peptide exchange result is on record as “+++ (≥50 = +++)”.

Regarding “170 (FIAAVVEKV; listed as Homo sapiens) [compound 170]”, the Peptide exchange result is listed as “++ (≥20% = ++)”.

“85 (KLLDKPEQFL; listed as Homo sapiens) [compound 85]”: the Peptide exchange result is listed as “++ (≥20% = ++)”.

For “215 (QIADIVTSV; listed as Homo sapiens) [compound 215]”, the Peptide exchange entry is reported as “++ (≥20% = ++)”.

With “128 (SILTNISEV; listed as Homo sapiens) [compound 128]”, the Peptide exchange result was “++ (≥20% = ++)”.

With “208 (HLNNDRNPL; listed as Homo sapiens) [compound 208]”, the Peptide exchange entry is “++ (≥20% = ++)”.

“39 (YLEDGFAYV; listed as Homo sapiens) [compound 39]”: the Peptide exchange entry is given as “+++ (≥50 = +++)”.

For the substance “107 (RVLPGQAVTGV; listed as Homo sapiens) [compound 107]”, the Peptide exchange result is listed as “++ (≥20% = ++)”.

In the case of “236 (KMSELQTYV; listed as Homo sapiens) [compound 236]”, the Peptide exchange entry is reported as “+++ (≥50 = +++)”.

“31 (GLLETTGLLAT; listed as Homo sapiens) [compound 31]”: the Peptide exchange entry is reported as “+++ (≥50 = +++)”.
